Data reported in the supplement of paper PMC10126150.
± gives the standard deviation of the averaged measurements.

System: ATP
Assay: switch fluorescence ratio, 500 uM ATP over buffer (Cy3 cluster intensity, sum of 5 cycles each) (fold (ratio)); higher = stronger signal-on switching upon ATP binding; sequences stand for … in TCGTCGGCAGCGTCAGATGTGTATAAGAGACAGTTTTTTTTTTTTTTTTTTTTTTTTT…TC
Details: aptamer strand: ATP DNA aptamer (quencher-CACCTGGGGGAGTATTGCGGAGGAAGG + anchor), 100 nM annealed; ATP concentration: 500 uM
In short: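 After annealing to 100 nM quencher-labelled ATP aptamer, Cy3-labelled switching-strand clusters on a modified Illumina MiSeq flow-cell were imaged in selection buffer. A second image followed after 15 min with 500 uM ATP at 22 °C, and five such buffer/ATP cycles were done, each separated by NaOH stripping and re-annealing. The fluorescence ratio, averaged per switch-domain sequence, is summed target-cycle over summed buffer-cycle Cy3 intensity per cluster, with clusters outside 100-1000 RFU excluded.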
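Note: ATP exposure 15 min at 22 °C before imaging.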

Row | Sequence | switch fluorescence ratio
1 | ACCCTGGAAC | 1.045 ± 0.0039
2 | ACCCTGTTGG | 1.01 ± 0.029
3 | ACCCTTATAG | 1.018 ± 0.0093
4 | ACCGAGCATG | 1.36 ± 0.1
5 | ACCGAGTTCT | 0.99 ± 0.057
6 | ACCGATCTCA | 1.048 ± 0.0089
7 | ACCGCATAGG | 1.0484 ± 4.5e-05
8 | ACCGCATCGT | 1.21 ± 0.027
9 | ACCGCGTGGG | 1.04 ± 7.3e-05
10 | ACCGGAGAGC | 1.1 ± 0.18
11 | ACCGGAGGGC | 0.9905 ± 0.0044
12 | ACCGGCACGG | 0.9679 ± 0.0037
13 | ACCGGGCCCT | 1.008 ± 0.0093
14 | ACCGGGCGCC | 0.967 ± 0.027
15 | ACCGGGGTGC | 1.612 ± 0.0063
16 | ACCGGTTACC | 1.09 ± 0.029
17 | ACCGGTTACG | 1.027 ± 0.0055
18 | ACCGTATTTG | 1.119 ± 0.0047
19 | ACCGTCCCCA | 1.26 ± 0.11
20 | ACCGTGATGT | 1.08 ± 0.024
21 | ACCGTGCTTA | 1.01 ± 0.032
22 | ACCGTTGGGG | 1.04 ± 0.02
23 | ACCTAATGTT | 1.02 ± 0.016
24 | ACCTAGCTCC | 1.71 ± 0.056
25 | ACCTAGGGAG | 1.05 ± 0.02

Row | Sequence | switch fluorescence ratio
26 | ACCTATCCGG | 1.03 ± 0.017
27 | ACCTATCTTG | 1.03 ± 0.016
28 | ACCTATTAGA | 1.01 ± 0.022
29 | ACCTCGTTTC | 1.02 ± 0.018
30 | ACCTGCGGGG | 1.01 ± 0.023
31 | ACCTGGCACA | 1.09 ± 0.012
32 | ACCTGGGTAT | 1.01 ± 0.049
33 | ACCTTAAAGA | 0.9915 ± 0.005
34 | ACCTTAATTA | 1.1 ± 0.044
35 | ACCTTATAAT | 1.025 ± 0.0092
36 | ACCTTTTAGT | 1.04 ± 0.018
37 | ACGAAAAGTG | 1.05 ± 0.072
38 | ACGAAAATTT | 1.05 ± 0.13
39 | ACGAAATAGG | 1.07 ± 0.035
40 | ACGAAATGTT | 0.988 ± 0.021
41 | ACGAACGGGG | 1.27 ± 0.1
42 | ACGAAGATTA | 1.03 ± 0.014
43 | ACGAAGATTT | 1.03 ± 0.066
44 | ACGAAGGGAG | 1.02 ± 0.031
45 | ACGAAGTTTT | 1.02 ± 0.0028
46 | ACGACCGGCA | 1.11 ± 0.098
47 | ACGACCTTGT | 1.03 ± 0.018
48 | ACGACGGGGG | 1.2 ± 0.23
49 | ACGACTCCCG | 1.109 ± 0.0044
50 | ACGACTGTAG | 1.02 ± 0.029

Row | Sequence | switch fluorescence ratio
51 | ACGACTTTTG | 0.995 ± 0.042
52 | ACGAGACGAC | 1.06 ± 0.023
53 | ACGAGACGC | 1.16 ± 0.031
54 | ACGAGATGAC | 1.05 ± 0.067
55 | ACGAGCCATG | 1.1 ± 0.015
56 | ACGAGGGATG | 1.01 ± 0.029
57 | ACGAGGGGAA | 1.015 ± 0.0057
58 | ACGAGGGGGC | 1.24 ± 0.34
59 | ACGAGGTGGG | 0.987 ± 0.017
60 | ACGAGGTTTT | 1.03 ± 0.042
61 | ACGAGTTCGC | 1.04 ± 0.025
62 | ACGATAATCG | 0.996 ± 0.008
63 | ACGATCAGCA | 1.05 ± 0.047
64 | ACGATCGGGC | 1.06 ± 0.05
65 | ACGATCTCCC | 1.31 ± 0.098
66 | ACGATCTTGC | 1.02 ± 0.035
67 | ACGATGTACT | 1.1 ± 0.013
68 | ACGATGTTGG | 0.994 ± 0.023
69 | ACGATTATGC | 1.04 ± 0.11
70 | ACGATTTTTC | 0.974 ± 0.056
71 | ACGCAGCTGT | 1.379 ± 0.0027
72 | ACGCAGTTCC | 1.151 ± 0.0075
73 | ACGCATTACA | 3.9 ± 1.6
74 | ACGCCAATGT | 1.34 ± 0.076
75 | ACGCCACATT | 1.55 ± 0.091

Row | Sequence | switch fluorescence ratio
76 | ACGCCAGCTA | 1.137 ± 0.004
77 | ACGCCCTTTT | 1.05 ± 0.052
78 | ACGCCGGGGG | 1.01 ± 0.031
79 | ACGCCGGGGT | 1.3 ± 0.51
80 | ACGCGCCTGG | 1.05 ± 0.043
81 | ACGCGCGTCG | 1 ± 0.063
82 | ACGCGGCGAT | 1.08 ± 0.026
83 | ACGCGGGTTT | 1.02 ± 0.02
84 | ACGCTCATGT | 1.05 ± 0.013
85 | ACGCTGCCGG | 1.1 ± 0.057
86 | ACGGAAATGT | 1.18 ± 0.1
87 | ACGGACGCCA | 1.21 ± 0.019
88 | ACGGAGGCAT | 1.31 ± 0.024
89 | ACGGAGGGAT | 1.32 ± 0.032
90 | ACGGAGTAAA | 0.99939 ± 0.00086
91 | ACGGATGTTT | 0.997 ± 0.022
92 | ACGGATTGAA | 1.003 ± 0.0058
93 | ACGGATTTAG | 1.024 ± 0.01
94 | ACGGCATTTC | 1.28 ± 0.047
95 | ACGGCCAAGG | 1.05 ± 0.031
96 | ACGGCGCTTG | 1.051 ± 0.0053
97 | ACGGCTACGG | 1.02 ± 0.018
98 | ACGGGAGTGC | 1.03 ± 0.046
99 | ACGGGATGTG | 0.978 ± 0.016
100 | ACGGGATTTC | 1.05 ± 0.028

Row | Sequence | switch fluorescence ratio
101 | ACGGGCAACG | 0.9743 ± 0.0065
102 | ACGGGCACTT | 1.12 ± 0.041
103 | ACGGGCATCG | 1.02 ± 0.032
104 | ACGGGCCTTC | 1.03 ± 0.012
105 | ACGGGCTTAG | 1.01 ± 0.016
106 | ACGGGGAAGG | 1.03 ± 0.035
107 | ACGGGGCGGC | 1.11 ± 0.028
108 | ACGGGGCGTT | 1.01 ± 0.012
109 | ACGGGGGAGG | 1.02 ± 0.028
110 | ACGGGGGATG | 0.995 ± 0.025
111 | ACGGGGGCCG | 0.993 ± 0.041
112 | ACGGGGGTT | 0.98 ± 0.017
113 | ACGGGGTAGA | 1.03 ± 0.052
114 | ACGGGGTGTC | 1.08 ± 0.089
115 | ACGGGGTTTT | 1.01 ± 0.017
116 | ACGGGTAATT | 1.02 ± 0.037
117 | ACGGGTAGGG | 1.05 ± 0.035
118 | ACGGGTTCCT | 1 ± 0.025
119 | ACGGGTTGTC | 0.981 ± 0.11
120 | ACGGGTTTGG | 1.01 ± 0.023
121 | ACGGTAGAAC | 1.04 ± 0.021
122 | ACGGTAGTGC | 1.04 ± 0.022
123 | ACGGTATTG | 1.19 ± 0.037
124 | ACGGTCAGGG | 1.046 ± 0.0074
125 | ACGGTCGGCT | 1.04 ± 0.048

Row | Sequence | switch fluorescence ratio
126 | ACGGTGACGG | 1.02 ± 0.04
127 | ACGGTGATCA | 1.03 ± 0.038
128 | ACGGTGCCAA | 1.02 ± 0.034
129 | ACGGTGTGCG | 1 ± 0.058
130 | ACGGTTATTT | 1.072 ± 0.01
131 | ACGGTTCCAT | 0.97 ± 0.057
132 | ACGGTTGGTG | 1.01 ± 0.027
133 | ACGGTTTTTC | 1.0014 ± 0.0005
134 | ACGTAAAAGT | 1.25 ± 0.41
135 | ACGTAACATG | 1.24 ± 0.015
136 | ACGTAATGTC | 1.25 ± 0.12
137 | ACGTAATTAA | 1.13 ± 0.026
138 | ACGTAGAATG | 1.06 ± 0.015
139 | ACGTAGACGT | 1.02 ± 0.018
140 | ACGTAGTGCG | 1 ± 0.023
141 | ACGTATGTTG | 1.022 ± 0.0017
142 | ACGTCAAGAG | 1.45 ± 0.0026
143 | ACGTCAGTTG | 0.975 ± 0.012
144 | ACGTCATAGT | 1.14 ± 0.047
145 | ACGTCCAAAA | 1.04 ± 0.026
146 | ACGTCCGCTA | 2.6 ± 0.064
147 | ACGTCGATGG | 0.995 ± 0.019
148 | ACGTGACCAT | 1.33 ± 0.047
149 | ACGTGAGGTT | 1.01 ± 0.059
150 | ACGTGAGTGT | 0.977 ± 0.0076

Row | Sequence | switch fluorescence ratio
151 | ACGTGAGTTT | 0.957 ± 0.035
152 | ACGTGATTTT | 1.09 ± 0.065
153 | ACGTGCAGTC | 1.12 ± 0.083
154 | ACGTGGTCCA | 0.985 ± 0.037
155 | ACGTGGTTAG | 1 ± 0.029
156 | ACGTGTCTTG | 1.01 ± 0.013
157 | ACGTGTGATG | 0.99 ± 0.024
158 | ACGTGTTAAT | 1.005 ± 0.0017
159 | ACGTTAAATG | 1.13 ± 0.053
160 | ACGTTAAGAT | 1.29 ± 0.26
161 | ACGTTACTCA | 1.5 ± 0.032
162 | ACGTTATGTT | 1.1 ± 0.035
163 | ACGTTGCACA | 1.18 ± 0.016
164 | ACGTTTGGCT | 0.954 ± 0.028
165 | ACGTTTGTTA | 1.002 ± 0.0059
166 | ACGTTTTAA | 0.9999 ± 0.0084
167 | ACTAAAAGGT | 1.01 ± 0.012
168 | ACTAAAGTGC | 1.01 ± 0.03
169 | ACTAAATATG | 1.05 ± 0.046
170 | ACTAAATCGG | 1.02 ± 0.039
171 | ACTAAGGGAG | 1.01 ± 0.005
172 | ACTAATATAT | 0.999 ± 0.04
173 | ACTAATATCG | 1.04 ± 0.036
174 | ACTAATATTG | 1.032 ± 0.0054
175 | ACTACAGCTC | 1.15 ± 0.021

Row | Sequence | switch fluorescence ratio
176 | ACTACGTAAA | 0.997 ± 0.046
177 | ACTACTACTT | 1.16 ± 0.019
178 | ACTACTGACA | 1.24 ± 0.04
179 | ACTAGAAGAC | 1.04 ± 0.012
180 | ACTAGGGATG | 0.987 ± 0.014
181 | ACTAGTATGG | 1.03 ± 0.053
182 | ACTAGTCAAA | 1.02 ± 0.012
183 | ACTAGTGGTC | 0.992 ± 0.042
184 | ACTATCGGGT | 1.04 ± 0.028
185 | ACTATTATCT | 1.023 ± 0.0099
186 | ACTATTATTT | 0.9887 ± 0.0022
187 | ACTCAGCTGG | 1.074 ± 0.0069
188 | ACTCAGTATA | 1.1 ± 0.02
189 | ACTCAGTTGT | 1.06 ± 0.059
190 | ACTCATATCG | 0.987 ± 0.029
191 | ACTCATGTTG | 0.98166 ± 0.00011
192 | ACTCCATGCG | 1.155 ± 0.0036
193 | ACTCCGACCG | 1.72 ± 0.14
194 | ACTCCGGGGA | 2.4 ± 0.42
195 | ACTCCTAACC | 1.26 ± 0.047
196 | ACTCCTCGAC | 2.71 ± 0.41
197 | ACTCCTGGTT | 1.01 ± 0.014
198 | ACTCGAGGGG | 1.01 ± 0.041
199 | ACTCGCGGGC | 1.98 ± 0.21
200 | ACTCGGGCTA | 1.59 ± 0.61
